The numbers were not newly measured in patent publication US4259319A, “Antibiotic auromomycin, and process for production thereof” (Kanegafuchi Chemical Industry Company, Limited, priority 1977, dated 1981), which cites them from elsewhere.

For data set [1] the following is noted: comparison substance.
The subject of another data set is Gram-positive bacteria. To be noted: comparison substance.

In the case of neocarcinostatin, the isoelectric point in data set [1] is recorded as 3.5 pH. In addition, the Antibacterial activity entry in the data set on Gram-positive bacteria is given as “inhibiting only Grampositive bacteria”.
